The text below walks through data of patent US20190135932A1 (Pfizer, published 2019).

Where “and” joins values, the source holds several entries; their conditions need not be identical. Equal values may be shown once.

Assay [1] has as its target cynomolgus OX40R on activated cynomolgus monkey T cells / PBMCs (cynomolgus monkey). The assay can be described thus: cell-based or functional assay.
Assay [2] concerns the target T1, CD271-Ig (Alexis Biochemicals) (human, UniProt P08138 29-250).
T1 construct: extracellular domain; Bought; also called nerve growth factor receptor (CD271)
The assay can be described thus: ELISA on coated receptor-Ig fusion protein. How it is done: (§1) Maxisorb 96-well plates (Nunc, Roskilde, Denmark) were coated with 100 μl of human TNFα receptor family member fusion proteins at 0.25 μg/ml diluted in BupH™ Carbonate buffer, pH 9.4 (Pierce, Rockford, Ill.) and incubated overnight at 4° C. The selectivity receptor fusion proteins tested included CD40-Ig (Alexis Biochemicals, San Diego, Calif.), CD137-Ig (R&D Systems, Minneapolis, Minn.) and CD271-Ig (Alexis Biochemicals, San Diego, Calif.). Also included as the positive control with each assay was the OX40-Ig fusion protein (in-house construct, Bioexpress, 97/2117). Plates were then washed three times with wash buffer containing 0.05% Tween 20 (Sigma, St Louis, Mo.) diluted in PBS and blocked with 300 μl of 0.5% BSA (Sigma, St Louis, Mo.) in PBS (Sigma, St Louis, Mo.) for 1 hour at RT°. Next, the plates were washed and 100 μl/well of anti-human OX40 reactive antibodies were added to the plates at various concentrations and incubated for 1 hour at RT°. Plates were thoroughly washed three times and OX40R antibody binding was detected with a horse radish peroxidase labeled anti-human kappa chain antibody (Bethyl Laboratories, Montgomery, Tex.) at 25 ng/ml for 1 hour at RD°. Plates were then washed three times which was followed by the addition of 100 μl/well of 1-Step Turbo-TMB substrate (Pierce, Rockford, Ill.) for 30 minutes at RT. The reaction was stopped by adding an equal volume of 2M H₂ SO₄. Absorbance was read at 450 nm on a Molecular Devices Spectra Max 340 (Molecular Devices, Sunnyvale, Calif.).

In assay [3] the target is T2, CD40-Ig (Alexis Biochemicals) (human, UniProt P25942 21-193).
T2 construct: extracellular domain; Bought; also called CD40 receptor
T2 sequence (P25942 21-193): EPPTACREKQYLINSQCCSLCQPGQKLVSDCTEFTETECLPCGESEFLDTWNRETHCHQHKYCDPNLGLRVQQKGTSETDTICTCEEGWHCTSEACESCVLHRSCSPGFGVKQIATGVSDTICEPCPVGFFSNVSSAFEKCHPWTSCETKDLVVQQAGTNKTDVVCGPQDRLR
Nature of the assay: ELISA on coated receptor-Ig fusion protein. How it is done: as §1

The target in the next assay is T3, CD137-Ig (R&D Systems) (human, UniProt Q07011 24-186).
T3 construct: extracellular domain; Bought; also called 4-1BB receptor (CD137)
T3 sequence (Q07011 whole entry, the tested form may be a part): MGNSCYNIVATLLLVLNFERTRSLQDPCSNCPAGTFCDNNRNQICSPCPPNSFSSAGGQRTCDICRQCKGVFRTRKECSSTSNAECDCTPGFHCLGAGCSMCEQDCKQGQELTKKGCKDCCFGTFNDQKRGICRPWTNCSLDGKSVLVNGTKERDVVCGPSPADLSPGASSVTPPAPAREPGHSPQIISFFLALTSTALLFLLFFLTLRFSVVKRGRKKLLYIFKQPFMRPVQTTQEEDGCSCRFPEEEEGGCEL
The assay can be described thus: ELISA on coated receptor-Ig fusion protein. As for the experimental part: as §1

Assay [4] concerns the target T4, mouse OX40R on activated mouse T cells (mouse, UniProt P47741 20-272).
T4 construct: whole, on cells; also called mouse cells; murine OX40R
T4 sequence (looked up): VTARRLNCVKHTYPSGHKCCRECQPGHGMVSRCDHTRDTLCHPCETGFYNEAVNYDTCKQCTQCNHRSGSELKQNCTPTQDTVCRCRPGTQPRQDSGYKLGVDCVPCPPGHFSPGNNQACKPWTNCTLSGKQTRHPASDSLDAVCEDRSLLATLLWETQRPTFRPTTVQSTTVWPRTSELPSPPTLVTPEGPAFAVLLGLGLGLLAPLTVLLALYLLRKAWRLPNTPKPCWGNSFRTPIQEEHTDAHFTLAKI
The assay can be described thus: FACS, Alexa Fluor 647 conjugated antibody on activated T cells. How it is done: (§2) Rat whole blood collected in heparinized syringes was diluted 1:3 in warm HBSS. Next, 5 mls was carefully layered over an equal volume of Lympholyte-Rat (Cedarlane Laboratories, Westbury, N.Y.). The tubes were centrifuged for 20 minutes at 1500 RPM. The PBMCs interface was collected, washed twice and the cell pellet was re-adjusted to 2×10⁶/ml in TCM. Two mls of cells were added to each well of a 24 well plate and stimulated for 24-48 hours with PHA (Remel, Lenexa, Kans.) at 10 ng/ml prior to flow cytometry staining.
(§3) Stimulated mouse, rat, rabbit, dog and cynomolgus PBMCs and the 300-19 cell line expressing the cynomolgus OX40 receptor were used to test for human OX40 antibody species cross-reactivity. Human OX40 expressing activated T lymphocytes and OX40 transduced 300-19 cells were used as positive controls. Cells (5.0×10⁵/tube) were washed once in cold wash buffer (PBS, 2% FBS and 0.02% sodium azide) and 100 μl/tube of Alexa Fluor 647 conjugated control or OX40 reactive antibodies at 5 ug/ml was added to each tube. The antibodies were labeled using an Alex Fluor 647 protein labeling kit as described by the manufacturer (Molecular Probes, Eugene, Oreg.). […] Antibody staining was measured and analyzed using a Becton Dickinson FACSCalibur and CellQuest software (San Jose, Calif.).
Background: In flow cytometry, cells or beads pass a laser one at a time.

The target of assay [5] is T5, rat OX40R on activated rat T cells (rat, UniProt P15725 20-271).
T5 construct: whole, on cells; also called rat cells
T5 sequence (looked up): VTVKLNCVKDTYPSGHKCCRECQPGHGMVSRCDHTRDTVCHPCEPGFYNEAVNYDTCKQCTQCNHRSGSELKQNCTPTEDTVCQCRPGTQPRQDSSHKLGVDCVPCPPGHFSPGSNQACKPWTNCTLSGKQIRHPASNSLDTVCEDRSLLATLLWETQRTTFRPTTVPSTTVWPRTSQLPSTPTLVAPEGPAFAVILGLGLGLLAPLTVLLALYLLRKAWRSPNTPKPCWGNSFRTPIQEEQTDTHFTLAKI
The assay is described as above. As for the experimental part:
as §2, §3

For assay [6], the target named is T6, human OX40R on activated primary human T cells (human, UniProt P43489 29-277).
T6 sequence (looked up): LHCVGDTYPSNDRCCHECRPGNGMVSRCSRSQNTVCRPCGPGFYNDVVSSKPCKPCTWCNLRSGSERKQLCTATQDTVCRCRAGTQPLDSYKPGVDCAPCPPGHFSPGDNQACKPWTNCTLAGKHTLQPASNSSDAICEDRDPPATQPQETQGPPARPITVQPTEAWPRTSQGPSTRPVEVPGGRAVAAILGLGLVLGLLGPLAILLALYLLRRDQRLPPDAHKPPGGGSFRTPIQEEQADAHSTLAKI
Nature of the assay: cell-based or functional assay.

T1 sequence (P08138 29-250): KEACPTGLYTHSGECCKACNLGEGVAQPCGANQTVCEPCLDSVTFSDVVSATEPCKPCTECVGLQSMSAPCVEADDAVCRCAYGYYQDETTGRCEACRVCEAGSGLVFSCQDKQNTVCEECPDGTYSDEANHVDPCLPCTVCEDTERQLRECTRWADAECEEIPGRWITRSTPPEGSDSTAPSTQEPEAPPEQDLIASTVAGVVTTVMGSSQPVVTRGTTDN

B1: human monoclonal antibody 11D4 (antibody, V domains shown)
VH: EVQLVESGGGLVQPGGSLRLSCAASGFTFSSYSMNWVRQAPGKGLEWVSYISSSSSTIDYADSVKGRFTISRDNAKNSLYLQMNSLRDEDTAVYYCARESGWYLFDYWGQGTLVTVSS
VL: DIQMTQSPSSLSASVGDRVTITCRASQGISSWLAWYQQKPEKAPKSLIYAASSLQSGVPSRFSGSGSGTDFTLTISSLQPEDFATYYCQQYNSYPPTFGGGTKVEIKR
notes: IgG2 heavy chain, kappa light chain; allotypes G2(n-) and Km3; Alexa Fluor 647 conjugate was used in the species cross-reactivity FACS
B1: in assay [1], the “EC50 of anti-CD3 induced IL-2 production by cynomolgus T cells, donor 2325” value turned out to be 2 ng/mL; the “EC50 of anti-CD3 induced IL-2 production by cynomolgus T cells, donor 32081” value amounted to 7 ng/mL; the “EC50 of anti-CD3 induced IL-2 production by cynomolgus T cells, donor 32750” value was determined as 7 ng/mL; the “EC50 of anti-CD3 induced IL-2 production by cynomolgus T cells, donor 32842” value came to 11 ng/mL. In addition, in assay [1], the “EC50 of anti-CD3 induced IL-2 production by cynomolgus T cells, donor 33062” value was 28 ng/mL; the “EC50 of anti-CD3 induced IL-2 production by cynomolgus T cells, donor 33080” value amounted to 31 ng/mL; the “EC50 of anti-CD3 induced IL-2 production by cynomolgus T cells, donor 33081” value came to 8 ng/mL. For the same molecule, in assay [2], the “Selectivity (binding)” value is > 100 µg/mL and > 700 nM. The “Selectivity (binding)” value in assay [3] was > 100 µg/mL and > 700 nM. Moreover, in the assay with CD137-Ig (R&D Systems), the “Selectivity (binding)” value was > 100 µg/mL and > 700 nM. Also, the binding result in assay [4] is recorded as “no binding (tested: 5 ug/ml)”. For the same molecule, the binding result in assay [5] is “no binding (tested: 5 ug/ml)”.

B2: human monoclonal antibody 18D8 (antibody, human IgG2, kappa, V domains shown)
VH: EVQLVESGGGLVQPGRSLRLSCAASGFTFDDYAMHWVRQAPGKGLEWVSGISWNSGSIGYADSVKGRFTISRDNAKNSLYLQMNSLRAEDTALYYCAKDQSTADYYFYYGMDVWGQGTTVTVSS
VL: EIVVTQSPATLSLSPGERATLSCRASQSVSSYLAWYQQKPGQAPRLLIYDASNRATGIPARFSGSGSGTDFTLTISSLEPEDFAVYYCQQRSNWPTFGQGTKVEIKR
As to B2, the “Augmentation of T Cell Activity (EC50): CD3 induced IL-2 production (N = 4)” value in assay [6] is 0.049 µg/ml and 0.33 nM. Further, the “Augmentation of T Cell Activity (EC50): Stimulation of IL-2 production by antigen-primed cells (N = 1)” value in assay [6] was 0.014 µg/ml and 0.1 nM. Besides, the “Selectivity (Binding to CD40, CD137, CD271)” value (in assay [2]; in assay [3]; with CD137-Ig (R&D Systems)) was > 700 nM in each case.
